Numbered stars: 1 amine (or outer) side, 2 acyl side, 3 side chain; on linkers, the order of the positions; unused ones are H or OH. Square brackets hold non-standard residues; d marks the D form. Side chains are listed from the residue outwards. Ends that are not written are not given here. * marks the point of attachment. Hexadecanoyl(16-SO3H) = O=C(CCCCCCCCCCCCCCCS(=O)(=O)O)*; C18 diacid = O=C(O)CCCCCCCCCCCCCCCCC(=O)*; γGlu = O=C(O)[C@H](CCC(=O)[*:2])N[*:1]; εLys = N[C@@H](CCCCN[*:1])C(=O)[*:2]; Cya = N[C@@H](CS(=O)(=O)O)C(=O)O; AEEA = NCCOCCOCC(=O)O; Aib = CC(C)(N)C(=O)O; Ahx = NCCCCCC(=O)O; GABA = NCCCC(=O)O
B1: GLP-1 derivative of Example 19: N{Epsilon-18}, N{Epsilon-22}, N{Epsilon-30}-triacylated [Aib8,Lys18,Lys22,Arg26,Lys30,Arg34]-GLP-1-(7-37)-peptide (peptide)
peptide: H[Aib]EGTFTSDVSK([AEEA-AEEA-AEEA-AEEA-εLys-εLys-Ahx-Hexadecanoyl(16-SO3H)])YLEK([AEEA-AEEA-AEEA-AEEA-εLys-εLys-Ahx-Hexadecanoyl(16-SO3H)])QAAREFIK([AEEA-AEEA-AEEA-AEEA-εLys-εLys-Ahx-Hexadecanoyl(16-SO3H)])WLVRGRG
notes: Full chemical name printed at h-0088; the printed name is uneven in the number of OEG units for the side chains at 18 and 22 (four opened, three closed)

molecular target: T1, human GLP-1 receptor (human, UniProt P43220 24-463); test: cell-based or functional assay

Row | Binder | In vitro potency EC50 (CRE luciferase reporter gene assay, BHK cells) [nM]
1 | H[Aib]EGTFTSDVSK([AEEA-AEEA-εLys-Hexadecanoyl(16-SO3H)])YLEK([AEEA-AEEA-εLys-Hexadecanoyl(16-SO3H)])QAAREFIK([AEEA-AEEA-εLys-Hexadecanoyl(16-SO3H)])WLVRGRG (Full chemical name printed at h-0076) | 0.026
2 | H[Aib]EGTFTSDVSK([AEEA-AEEA-AEEA-AEEA-εLys-εLys-GABA-Hexadecanoyl(16-SO3H)])YLEK([AEEA-AEEA-AEEA-AEEA-εLys-εLys-GABA-Hexadecanoyl(16-SO3H)])QAAREFIK([AEEA-AEEA-AEEA-AEEA-εLys-εLys-GABA-Hexadecanoyl(16-SO3H)])WLVRGRG (Full chemical name printed at h-0086) | 0.116
3 | B1 | 0.019
4 | H[Aib]EGTFTSDVSK([AEEA-AEEA-γGlu-C18 diacid])YLEEQAARK([AEEA-AEEA-γGlu-C18 diacid])FIAWLVRGRK([AEEA-AEEA-γGlu-C18 diacid]) (Full chemical name printed at h-0060) | 0.04
5 | H[Aib]EGTFTSDVSK([Ser-Ser-Ser-Ser-Ser-Ser-γGlu-C18 diacid])YLEGQAARK([Ser-Ser-Ser-Ser-Ser-Ser-γGlu-C18 diacid])FIAWLVRGRK([Ser-Ser-Ser-Ser-Ser-Ser-γGlu-C18 diacid]) (Full chemical name printed at h-0068) | 0.067
6 | H[Aib]EGTFTSDVSSYLEEQAAK([εLys-AEEA-AEEA-Cya-Hexadecanoyl(16-SO3H)])EFIK([εLys-AEEA-AEEA-Cya-Hexadecanoyl(16-SO3H)])WLVRGRK([εLys-AEEA-AEEA-Cya-Hexadecanoyl(16-SO3H)]) (Full chemical name printed at h-0074) | 0.099
7 | H[Aib]EGTFTSDVSSYLEEQAAK([εLys-AEEA-AEEA-γGlu-C18 diacid])EFIK([εLys-AEEA-AEEA-γGlu-C18 diacid])WLVRGRK([εLys-AEEA-AEEA-γGlu-C18 diacid]) (Full chemical name printed at h-0072) | 0.085
8 | H[Aib]EGTFTSDVSSYLEEQAARK([AEEA-AEEA-γGlu-C18 diacid])FIK([AEEA-AEEA-γGlu-C18 diacid])WLVRGRK([AEEA-AEEA-γGlu-C18 diacid]) (Full chemical name printed at h-0070) | 0.026
9 | H[Aib]EGTFTSDVSK([AEEA-AEEA-Cya-Hexadecanoyl(16-SO3H)])YLEK([AEEA-AEEA-Cya-Hexadecanoyl(16-SO3H)])QAAREFIK([AEEA-AEEA-Cya-Hexadecanoyl(16-SO3H)])WLVRGRG (Full chemical name printed at h-0054) | 0.02

molecular target: T1, human GLP-1 receptor; test: competitive SPA binding, displacement of 125I-GLP-1(7-36)NH2 from BHK membranes with human GLP-1R, high HSA (2.0%)
Description: (§1) For the receptor binding assay in the presence of low HSA (0.005%) 50 μl of the assay buffer was added to each well of an assay plate. Assay continued with step 3. […] For the receptor binding assay in the presence of high HSA (2%) 50 μl of the 8% albumin stock was added to each well of an assay plate. Assay continued with step 3. […] Cell membrane aliquots were thawed and diluted to their working concentration. Fifty μl were added to each well in the assay plate. […] WGA SPA beads were suspended in assay buffer at 20 mg/ml. The suspension was diluted to 10 mg/ml in assay buffer just prior to addition to the assay plate. Fifty μl were added to each well in the assay plate. […] A 25 μl aliquot was reserved for measuring total counts/well. […] The assay plate was incubated for 2 h at 30° C. […] The assay plate was centrifuged for 10 min. […] The assay plate was read in a Packard TopCount NXT instrument.

Row | Binder | IC50 [nM]
10 | H[Aib]EGTFTSDVSK([AEEA-AEEA-εLys-Hexadecanoyl(16-SO3H)])YLEK([AEEA-AEEA-εLys-Hexadecanoyl(16-SO3H)])QAAREFIK([AEEA-AEEA-εLys-Hexadecanoyl(16-SO3H)])WLVRGRG (Full chemical name printed at h-0076) | 84
11 | H[Aib]EGTFTSDVSK([AEEA-AEEA-AEEA-AEEA-εLys-εLys-GABA-Hexadecanoyl(16-SO3H)])YLEK([AEEA-AEEA-AEEA-AEEA-εLys-εLys-GABA-Hexadecanoyl(16-SO3H)])QAAREFIK([AEEA-AEEA-AEEA-AEEA-εLys-εLys-GABA-Hexadecanoyl(16-SO3H)])WLVRGRG (Full chemical name printed at h-0086) | 19
12 | B1 | 49
13 | H[Aib]EGTFTSDVSK([AEEA-AEEA-γGlu-C18 diacid])YLEEQAARK([AEEA-AEEA-γGlu-C18 diacid])FIAWLVRGRK([AEEA-AEEA-γGlu-C18 diacid]) (Full chemical name printed at h-0060) | > 1000
14 | H[Aib]EGTFTSDVSK([Ser-Ser-Ser-Ser-Ser-Ser-γGlu-C18 diacid])YLEGQAARK([Ser-Ser-Ser-Ser-Ser-Ser-γGlu-C18 diacid])FIAWLVRGRK([Ser-Ser-Ser-Ser-Ser-Ser-γGlu-C18 diacid]) (Full chemical name printed at h-0068) | > 1000
15 | H[Aib]EGTFTSDVSSYLEEQAAK([εLys-AEEA-AEEA-Cya-Hexadecanoyl(16-SO3H)])EFIK([εLys-AEEA-AEEA-Cya-Hexadecanoyl(16-SO3H)])WLVRGRK([εLys-AEEA-AEEA-Cya-Hexadecanoyl(16-SO3H)]) (Full chemical name printed at h-0074) | 214
16 | H[Aib]EGTFTSDVSSYLEEQAAK([εLys-AEEA-AEEA-γGlu-C18 diacid])EFIK([εLys-AEEA-AEEA-γGlu-C18 diacid])WLVRGRK([εLys-AEEA-AEEA-γGlu-C18 diacid]) (Full chemical name printed at h-0072) | > 1000
17 | H[Aib]EGTFTSDVSSYLEEQAARK([AEEA-AEEA-γGlu-C18 diacid])FIK([AEEA-AEEA-γGlu-C18 diacid])WLVRGRK([AEEA-AEEA-γGlu-C18 diacid]) (Full chemical name printed at h-0070) | 188
18 | H[Aib]EGTFTSDVSK([AEEA-AEEA-Cya-Hexadecanoyl(16-SO3H)])YLEK([AEEA-AEEA-Cya-Hexadecanoyl(16-SO3H)])QAAREFIK([AEEA-AEEA-Cya-Hexadecanoyl(16-SO3H)])WLVRGRG (Full chemical name printed at h-0054) | 290

molecular target: T1, human GLP-1 receptor; test: competitive SPA binding, displacement of 125I-GLP-1(7-36)NH2 from BHK membranes with human GLP-1R, low HSA (max. 0.001%)
Description: as §1

Row | Binder | IC50 [nM]
19 | H[Aib]EGTFTSDVSK([AEEA-AEEA-εLys-Hexadecanoyl(16-SO3H)])YLEK([AEEA-AEEA-εLys-Hexadecanoyl(16-SO3H)])QAAREFIK([AEEA-AEEA-εLys-Hexadecanoyl(16-SO3H)])WLVRGRG (Full chemical name printed at h-0076) | 0.23
20 | H[Aib]EGTFTSDVSK([AEEA-AEEA-AEEA-AEEA-εLys-εLys-GABA-Hexadecanoyl(16-SO3H)])YLEK([AEEA-AEEA-AEEA-AEEA-εLys-εLys-GABA-Hexadecanoyl(16-SO3H)])QAAREFIK([AEEA-AEEA-AEEA-AEEA-εLys-εLys-GABA-Hexadecanoyl(16-SO3H)])WLVRGRG (Full chemical name printed at h-0086) | 0.1
21 | B1 | 0.15
22 | H[Aib]EGTFTSDVSK([AEEA-AEEA-γGlu-C18 diacid])YLEEQAARK([AEEA-AEEA-γGlu-C18 diacid])FIAWLVRGRK([AEEA-AEEA-γGlu-C18 diacid]) (Full chemical name printed at h-0060) | 0.6
23 | H[Aib]EGTFTSDVSSYLEEQAAK([εLys-AEEA-AEEA-Cya-Hexadecanoyl(16-SO3H)])EFIK([εLys-AEEA-AEEA-Cya-Hexadecanoyl(16-SO3H)])WLVRGRK([εLys-AEEA-AEEA-Cya-Hexadecanoyl(16-SO3H)]) (Full chemical name printed at h-0074) | 5
24 | H[Aib]EGTFTSDVSSYLEEQAAK([εLys-AEEA-AEEA-γGlu-C18 diacid])EFIK([εLys-AEEA-AEEA-γGlu-C18 diacid])WLVRGRK([εLys-AEEA-AEEA-γGlu-C18 diacid]) (Full chemical name printed at h-0072) | 8.7
25 | H[Aib]EGTFTSDVSSYLEEQAARK([AEEA-AEEA-γGlu-C18 diacid])FIK([AEEA-AEEA-γGlu-C18 diacid])WLVRGRK([AEEA-AEEA-γGlu-C18 diacid]) (Full chemical name printed at h-0070) | 0.82
26 | H[Aib]EGTFTSDVSK([AEEA-AEEA-Cya-Hexadecanoyl(16-SO3H)])YLEK([AEEA-AEEA-Cya-Hexadecanoyl(16-SO3H)])QAAREFIK([AEEA-AEEA-Cya-Hexadecanoyl(16-SO3H)])WLVRGRG (Full chemical name printed at h-0054) | 1.4

— patent publication US20160200791A1 (Novo Nordisk, published 2016)
